According to publication PMC7489894 (Biochemical Journal, 2020):
Where no end group is shown, it is not given here.

Experiments:
[1] = target: HyBcl-2-4; test: ITC binding of BH3 motif peptides to HyBcl-2-4; parameters: species or system Hydra vulgaris; settings: read-out: KD (dissociation constant), HyBcl-2-4, MicroCal iTC200, 25°C, tag-free HyBcl-2-4 lacking 30 C-terminal residues, 25 mM Hepes pH 7.5, 150 mM NaCl, means of 3 experiments ± SD, NB: no binding detected
[2] = target: HyBcl-2-4 lacking 30 C-terminal residues (fusion tag-free) (Hydra vulgaris); test: ITC
[3] = target: human Bcl-2 (residues 10-203) (human, UniProt P10415 10-203); test: ITC
[4] = target: human Bcl-xL (residues 1-209 Δloop45-84) (human, UniProt Q07817-1 1-209, Δloop45-84); test: ITC
[5] = target: T1, human Bcl-w (residues 9-152) (human, UniProt Q92843 9-152); test: ITC
T1 sequence (looked up): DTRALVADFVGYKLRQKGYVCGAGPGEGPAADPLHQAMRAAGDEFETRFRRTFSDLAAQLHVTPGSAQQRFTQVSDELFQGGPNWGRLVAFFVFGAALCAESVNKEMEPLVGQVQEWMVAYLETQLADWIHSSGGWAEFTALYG

[6] = target: human Mcl-1 (residues 171-320) (human, UniProt Q07820 171-320); test: ITC
[7] = target: T2, human A1/Bfl-1 (residues 1-151) (human, UniProt Q16548 1-151); test: ITC
T2 sequence (looked up): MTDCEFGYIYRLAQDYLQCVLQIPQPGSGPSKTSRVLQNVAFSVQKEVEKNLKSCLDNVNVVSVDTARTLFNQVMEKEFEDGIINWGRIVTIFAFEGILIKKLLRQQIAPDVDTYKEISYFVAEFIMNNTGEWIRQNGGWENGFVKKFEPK

Sequence of human Bcl-2 (residues 10-203) (P10415 10-203): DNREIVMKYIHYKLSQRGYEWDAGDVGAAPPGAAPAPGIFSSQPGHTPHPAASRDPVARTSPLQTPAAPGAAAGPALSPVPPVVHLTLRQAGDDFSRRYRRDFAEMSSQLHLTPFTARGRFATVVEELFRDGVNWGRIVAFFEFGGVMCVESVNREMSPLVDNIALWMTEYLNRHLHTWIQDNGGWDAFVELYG
Sequence of human Mcl-1 (residues 171-320) (Q07820 171-320): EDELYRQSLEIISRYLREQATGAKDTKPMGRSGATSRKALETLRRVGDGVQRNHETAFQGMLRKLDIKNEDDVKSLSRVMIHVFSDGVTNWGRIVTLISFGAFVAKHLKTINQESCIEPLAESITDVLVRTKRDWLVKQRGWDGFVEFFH

Molecule SMRRLRAIGACLRAIGDDIQSRSEKS [HyBH3-only] has a Kd [1] of 149 nM.

B1: HyBH3-only-2 BH3 motif peptide (peptide)
peptide: SMRRLRAIGACLRAIGDDIQSRSEKS
In the case of B1, the Kd [2] is reported as 149 nM, the binding result [3] is reported as “binds” and the binding result [4] is reported as “binds”. The binding result [5] was “binds”, the Kd [6] was 50 nM and the binding result [7] was “binds”.

B2: HyBax BH3 motif peptide (peptide)
peptide: SRNGTVNKEVAHCLKRIGDDLVNNHQLN
For B2, the Kd [2] was 2290 nM, the binding result [3] was “binds” and the binding result [4] was “binds”. The binding result [5] was “binds”, the Kd [6] was 41 nM and the binding result [7] was “binds”.

B3: HyBak1 BH3 motif peptide (peptide)
peptide: SNGETENLGRVLASFGDEINDKYRQV
B3: binds [3]; binds [4]; binds [5]. For the same molecule, the Kd [6] was 67 nM and the binding result [7] was “binds”.
